According to IntAct's records for PubMed 31515488:

B1: Cancer/testis antigen 2 (Homo sapiens), O75638 (parent)
chain: MQAEGRGTGGSTGDADGPGGPGIPDGPGGNAGGPGEAGATGGRGPRGAGAARASGPRGGAPRGPHGGAASAQDGRCPCGARRPDSRLLELHITMPFSSPMEAELVRRILSRDAAPLPRPGAVLKDFTVSGNLLFMSVRDQDREGAGRMRVVGWGLGSASPEGQKARDLRTPKHKVSEQRPGTPGPPPPEGAQGDGCRGVAFNVMFSAPHI
B2: Progranulin (Homo sapiens), P28799 (parent)
chain: MWTLVSWVALTAGLVAGTRCPDGQFCPVACCLDPGGASYSCCRPLLDKWPTTLSRHLGGPCQVDAHCSAGHSCIFTVSGTSSCCPFPEAVACGDGHHCCPRGFHCSADGRSCFQRSGNNSVGAIQCPDSQFECPDFSTCCVMVDGSWGCCPMPQASCCEDRVHCCPHGAFCDLVHTRCITPTGTHPLAKKLPAQRTNRAVALSSSVMCPDARSRCPDGSTCCELPSGKYGCCPMPNATCCSDHLHCCPQDTVCDLIQSKCLSKENATTDLLTKLPAHTVGDVKCDMEVSCPDGYTCCRLQSGAWGCCPFTQAVCCEDHIHCCPAGFTCDTQKGTCEQGPHQVPWMEKAPAHLSLPDPQALKRDVPCDNVSSCPSSDTCCQLTSGEWGCCPIPEAVCCSDHQHCCPQGYTCVAEGQCQRGSEIVAGLEKMPARRASLSHPRDIGCDQHTSCPVGQTCCPSLGGSWACCQLPHAVCCEDRQHCCPAGYTCNVKARSCEKEVVSAQPATFLARSPHVGVKDVECGEGHFCHDNQTCCRDNRQGWACCPYRQGVCCADRRHCCPAGFRCAARGTKCLRREAPRWDAPLRDPALRQLL
partner: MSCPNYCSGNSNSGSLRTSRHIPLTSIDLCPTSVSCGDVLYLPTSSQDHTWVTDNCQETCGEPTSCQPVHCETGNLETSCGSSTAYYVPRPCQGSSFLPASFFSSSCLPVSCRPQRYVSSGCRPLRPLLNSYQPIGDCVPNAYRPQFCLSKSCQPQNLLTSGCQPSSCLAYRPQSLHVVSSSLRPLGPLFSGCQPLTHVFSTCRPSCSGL
B3: mRNA-decapping enzyme 1A (Homo sapiens), Q9NPI6 (parent)
chain: MEALSRAGQEMSLAALKQHDPYITSIADLTGQVALYTFCPKANQWEKTDIEGTLFVYRRSASPYHGFTIVNRLNMHNLVEPVNKDLEFQLHEPFLLYRNASLSIYSIWFYDKNDCHRIAKLMADVVEEETRRSQQAARDKQSPSQANGCSDHRPIDILEMLSRAKDEYERNQMGDSNISSPGLQPSTQLSNLGSTETLEEMPSGSQDKSAPSGHKHLTVEELFGTSLPKEQPAVVGLDSEEMERLPGDASQKEPNSFLPFPFEQLGGAPQSETLGVPSAAHHSVQPEITTPVLITPASITQSNEKHAPTYTIPLSPVLSPTLPAEAPTAQVPPSLPRNSTMMQAVKTTPRQRSPLLNQPVPELSHASLIANQSPFRAPLNVTNTAGTSLPSVDLLQKLRLTPQHDQIQTQPLGKGAMVASFSPAAGQLATPESFIEPPSKTAAARVAASASLSNMVLAPLQSMQQNQDPEVFVQPKVLSSAIPVAGAPLVTATTTAVSSVLLAPSVFQQTVTRSSDLERKASSPSPLTIGTPESQRKPSIILSKSQLQDTLIHLIKNDSSFLSTLHEVYLQVLTKNKDNHNL
partner: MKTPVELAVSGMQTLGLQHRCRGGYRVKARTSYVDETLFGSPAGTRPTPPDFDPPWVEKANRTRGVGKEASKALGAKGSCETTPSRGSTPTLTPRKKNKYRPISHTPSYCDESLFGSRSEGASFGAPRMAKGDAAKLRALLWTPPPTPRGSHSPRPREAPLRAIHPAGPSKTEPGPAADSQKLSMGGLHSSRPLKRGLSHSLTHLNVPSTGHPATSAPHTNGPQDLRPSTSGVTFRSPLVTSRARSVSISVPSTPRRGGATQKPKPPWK
B4: Coiled-coil domain-containing glutamate-rich protein 1 (Homo sapiens), Q8TC90 (parent)
chain: MTQTLDTREDPLNLGGGGGGGCGCGWAHSASLSSWSSCHRRRPGAPAYNRPHRYSPKTEYGPPRKQPKQQHGPGFWFQPPVCSNWGCWGGPWRPPPPGFWKFPCPVQVFRVYGLHPLCFCCCSCWSGSWNPGWVKPPGRKKRWGRRGRGLRHHPRHSYPRSPPADVSTLPRPVKLYEWREPGMRAPPNTTQFIMNQIYEDMRQQEKVERQQEALRAQKATVSGEASPARSSGNDAPPGGSKETWGLQETLYGFVQNPSLAFSPNPEENQSLAPLLVEEEEEKKNDDEEEYDQEVCDAKEASEEEEEVEDEEEEVEDEEEEEVEEAEYVEEGEEELEEEELEEEEEVLEENEQRGEEFHLPLEMPLSIFVEAEEKRENFISCTFLNPEQIIPKVPQESLFMAQDFNC
B5: Transcription initiation factor IIA subunit 1 (Homo sapiens), P52655 (parent)
chain: MANSANTNTVPKLYRSVIEDVINDVRDIFLDDGVDEQVLMELKTLWENKLMQSRAVDGFHSEEQQLLLQVQQQHQPQQQQHHHHHHHQQAQPQQTVPQQAQTQQVLIPASQQATAPQVIVPDSKLIQHMNASNMSAAATAATLALPAGVTPVQQILTNSGQLLQVVRAANGAQYIFQPQQSVVLQQQVIPQMQPGGVQAPVIQQVLAPLPGGISPQTGVIIQPQQILFTGNKTQVIPTTVAAPTPAQAQITATGQQQPQAQPAQTQAPLVLQVDGTGDTSSEEDEDEEEDYDDDEEEDKEKDGAEDGQVEEEPLNSEDDVSDEEGQELFDTENVVVCQYDKIHRSKNKWKFHLKDGIMNLNGRDYIFSKAIGDAEW
partner: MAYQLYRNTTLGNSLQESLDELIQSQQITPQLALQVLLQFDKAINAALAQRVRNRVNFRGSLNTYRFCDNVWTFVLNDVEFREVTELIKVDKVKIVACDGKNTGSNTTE
B6: Hypoxanthine-guanine phosphoribosyltransferase (Homo sapiens), P00492 (parent)
chain: MATRSPGVVISDDEPGYDLDLFCIPNHYAEDLERVFIPHGLIMDRTERLARDVMKEMGGHHIVALCVLKGGYKFFADLLDYIKALNRNSDRSIPMTVDFIRLKSYCNDQSTGDIKVIGGDDLSTLTGKNVLIVEDIIDTGKTMQTLLSLVRQYNPKMVKVASLLVKRTPRSVGYKPDFVGFEIPDKFVVGYALDYNEYFRDLNHVCVISETGKAKYKA
B7: Transmembrane protein 79 (Homo sapiens), Q9BSE2 (parent)
chain: MTEQETLALLEVKRSDSPEKSSPQALVPNGRQPEGEGGAESPGAESLRVGSSAGSPTAIEGAEDGLDSTVSEAATLPWGTGPQPSAPFPDPPGWRDIEPEPPESEPLTKLEELPEDDANLLPEKAARAFVPIDLQCIERQPQEDLIVRCEAGEGECRTFMPPRVTHPDPTERKWAEAVVRPPGCSCGGCGSCGDREWLRAVASVGAALILFPCLLYGAYAFLPFDVPRLPTMSSRLIYTLRCGVFATFPIVLGILVYGLSLLCFSALRPFGEPRREVEIHRRYVAQSVQLFILYFFNLAVLSTYLPQDTLKLLPLLTGLFAVSRLIYWLTFAVGRSFRGFGYGLTFLPLLSMLMWNLYYMFVVEPERMLTATESRLDYPDHARSASDYRPRPWG
partner: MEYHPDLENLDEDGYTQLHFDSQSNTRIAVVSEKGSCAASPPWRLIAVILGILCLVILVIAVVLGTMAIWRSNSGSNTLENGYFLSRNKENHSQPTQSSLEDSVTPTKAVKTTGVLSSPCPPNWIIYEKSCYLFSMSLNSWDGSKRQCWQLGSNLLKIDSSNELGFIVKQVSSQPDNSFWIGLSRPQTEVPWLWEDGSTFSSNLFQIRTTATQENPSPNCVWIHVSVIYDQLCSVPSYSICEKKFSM
B8: Stabilizer of axonemal microtubules 1 (Homo sapiens), Q8IYX7 (parent)
chain: MKTKCICELCSCGRHHCPHLPTKIYDKTEKPCLLSEYTENYPFYHSYLPRESFKPRREYQKGPIPMEGLTTSRRDFGPHKVAPVKVHQYDQFVPSEENMDLLTTYKKDYNPYPVCRVDPIKPRDSKYPCSDKMECLPTYKADYLPWNQPRREPLRLEHKYQPASVRFDNRTTHQDDYPIKGLVKTISCKPLAMPKLCNIPLEDVTNYKMSYVAHPVEKRFVHEAEKFRPCEIPFESLTTQKQSYRGLMGEPAKSLKPLARPPGLDMPFCNTTEFRDKYQAWPMPRMFSKAPITYVPPEDRMDLLTTVQAHYTCPKGAPAQSCRPALQIKKCGRFEGSSTTKDDYKQWSSMRTEPVKPVPQLDLPTEPLDCLTTTRAHYVPHLPINTKSCKPHWSGPRGNVPVESQTTYTISFTPKEMGRCLASYPEPPGYTFEEVDALGHRIYKPVSQAGSQQSSHLSVDDSENPNQRELEVLA

Variants of: B1
Conditions: with ubql1_human UBQLN1, Q9UMX0
Chain of ubql1_human UBQLN1, Q9UMX0 (Q9UMX0 whole entry): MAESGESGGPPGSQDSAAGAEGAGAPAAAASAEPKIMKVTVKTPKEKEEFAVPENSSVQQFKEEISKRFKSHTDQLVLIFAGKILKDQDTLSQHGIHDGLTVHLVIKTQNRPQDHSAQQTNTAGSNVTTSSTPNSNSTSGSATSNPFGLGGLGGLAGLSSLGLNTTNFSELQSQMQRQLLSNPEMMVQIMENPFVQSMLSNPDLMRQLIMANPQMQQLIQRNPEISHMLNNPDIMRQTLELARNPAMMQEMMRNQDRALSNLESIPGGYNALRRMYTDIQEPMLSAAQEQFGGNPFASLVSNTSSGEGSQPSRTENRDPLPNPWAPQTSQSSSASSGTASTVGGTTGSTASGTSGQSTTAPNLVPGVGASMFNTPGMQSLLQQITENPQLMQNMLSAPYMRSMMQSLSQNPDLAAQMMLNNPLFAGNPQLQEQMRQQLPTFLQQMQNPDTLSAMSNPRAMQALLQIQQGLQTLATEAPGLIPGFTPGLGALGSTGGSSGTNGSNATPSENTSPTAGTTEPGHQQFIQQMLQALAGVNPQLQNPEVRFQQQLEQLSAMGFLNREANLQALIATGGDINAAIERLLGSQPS

| Variant | effect of a mutation on the interaction |
| --- | --- |
| A80T | with no effect |

Variants of: B1
Conditions: with trip6_human TRIP6, Q15654
Chain of trip6_human TRIP6, Q15654 (Q15654 whole entry): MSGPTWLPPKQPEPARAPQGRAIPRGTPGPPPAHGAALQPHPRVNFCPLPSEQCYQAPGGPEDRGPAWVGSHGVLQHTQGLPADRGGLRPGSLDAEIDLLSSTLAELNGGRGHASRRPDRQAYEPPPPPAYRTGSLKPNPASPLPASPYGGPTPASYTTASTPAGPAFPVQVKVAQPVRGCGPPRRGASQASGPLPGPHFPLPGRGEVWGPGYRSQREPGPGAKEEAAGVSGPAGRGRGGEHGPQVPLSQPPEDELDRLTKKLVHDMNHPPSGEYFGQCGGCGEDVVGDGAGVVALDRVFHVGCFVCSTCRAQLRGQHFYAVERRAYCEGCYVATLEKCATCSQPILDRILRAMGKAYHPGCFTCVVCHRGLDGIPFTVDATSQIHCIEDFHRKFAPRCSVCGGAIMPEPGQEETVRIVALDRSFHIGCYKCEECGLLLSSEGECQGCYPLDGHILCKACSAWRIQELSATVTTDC

| Variant | effect of a mutation on the interaction |
| --- | --- |
| A80T | with no effect |

Variants of: B2
Conditions: with kr261_human KRTAP26-1, Q6PEX3

| Variant | effect of a mutation on the interaction |
| --- | --- |
| G515A | with no effect |
| D536E | with no effect |
| R433W | with no effect |

Variants of: B3
Conditions: with rita1_human RITA1, Q96K30

| Variant | effect of a mutation on the interaction |
| --- | --- |
| Q474H | with no effect |
| A297G | with no effect |
| P332T | with no effect |

Variants of: B4
Conditions: with pls1_human PLSCR1, O15162
Chain of pls1_human PLSCR1, O15162 (O15162 whole entry): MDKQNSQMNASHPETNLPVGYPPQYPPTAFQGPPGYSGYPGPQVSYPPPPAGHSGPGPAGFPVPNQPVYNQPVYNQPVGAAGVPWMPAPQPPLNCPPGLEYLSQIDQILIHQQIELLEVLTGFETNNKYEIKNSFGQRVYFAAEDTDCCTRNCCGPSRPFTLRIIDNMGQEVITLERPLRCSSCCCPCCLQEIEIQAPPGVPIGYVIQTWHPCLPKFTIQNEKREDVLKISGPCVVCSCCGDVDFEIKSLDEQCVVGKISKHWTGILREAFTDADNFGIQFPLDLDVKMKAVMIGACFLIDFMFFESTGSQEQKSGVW

| Variant | effect of a mutation on the interaction |
| --- | --- |
| E293K | with no effect |

Variants of: B4
Conditions: with nt2na_human NOTCH2NLA

| Variant | effect of a mutation on the interaction |
| --- | --- |
| E293K | with no effect |

Variants of: B5
Conditions: with t2ag_human GTF2A2, P52657

| Variant | effect of a mutation on the interaction |
| --- | --- |
| P208S | with no effect |

Variants of: B6
Conditions: with sdcb1_human SDCBP

| Variant | effect of a mutation on the interaction |
| --- | --- |
| C206Y | disrupting interaction strength |
| P38S | disrupting interaction strength |

Variants of: B6
Conditions: with iscu_human ISCU

| Variant | effect of a mutation on the interaction |
| --- | --- |
| C206Y | disrupting interaction strength |
| P38S | disrupting interaction strength |

Variants of: B6
Conditions: with prdc1_human PRTFDC1, Q9NRG1
Chain of prdc1_human PRTFDC1, Q9NRG1 (Q9NRG1 whole entry): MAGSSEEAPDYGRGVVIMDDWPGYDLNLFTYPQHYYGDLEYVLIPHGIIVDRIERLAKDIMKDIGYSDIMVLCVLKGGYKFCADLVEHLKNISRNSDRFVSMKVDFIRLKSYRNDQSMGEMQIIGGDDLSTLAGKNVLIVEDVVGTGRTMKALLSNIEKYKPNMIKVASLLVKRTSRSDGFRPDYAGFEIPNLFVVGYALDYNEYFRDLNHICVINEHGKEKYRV

| Variant | effect of a mutation on the interaction |
| --- | --- |
| C206Y | with no effect |
| P38S | with no effect |

Variants of: B6
Conditions: with ntaq1_human NTAQ1, Q96HA8

| Variant | effect of a mutation on the interaction |
| --- | --- |
| C206Y | disrupting interaction strength |
| P38S | disrupting interaction strength |

Variants of: B7
Conditions: with clc7a_human CLEC7A

| Variant | effect of a mutation on the interaction |
| --- | --- |
| V322I | with no effect |

Variants of: B8
Conditions: with rbtn2_human LMO2, P25791
Chain of rbtn2_human LMO2, P25791 (P25791 whole entry): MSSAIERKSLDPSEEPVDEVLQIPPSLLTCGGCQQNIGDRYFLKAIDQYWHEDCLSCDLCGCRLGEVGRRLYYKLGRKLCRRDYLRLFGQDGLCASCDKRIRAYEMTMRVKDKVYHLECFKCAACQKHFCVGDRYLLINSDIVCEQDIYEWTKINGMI

| Variant | effect of a mutation on the interaction |
| --- | --- |
| N464K | disrupting interaction strength |
| D118G | with no effect |

Variants of: B8
Conditions: with fhl3_human FHL3, Q13643
Chain of fhl3_human FHL3, Q13643 (Q13643 whole entry): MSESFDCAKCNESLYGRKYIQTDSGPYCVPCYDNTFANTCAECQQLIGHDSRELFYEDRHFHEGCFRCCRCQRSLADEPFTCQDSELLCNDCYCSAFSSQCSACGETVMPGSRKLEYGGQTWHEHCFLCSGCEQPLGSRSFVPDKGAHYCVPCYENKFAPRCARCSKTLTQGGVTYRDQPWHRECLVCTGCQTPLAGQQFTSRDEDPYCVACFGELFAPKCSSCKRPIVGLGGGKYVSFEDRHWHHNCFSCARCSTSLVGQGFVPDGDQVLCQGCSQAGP

| Variant | effect of a mutation on the interaction |
| --- | --- |
| N464K | with no effect |
| D118G | with no effect |
